The record followed here is paper PMC9093745, “Carbohydrate Metabolism in Bacteria: Alternative Specificities in ADP-Glucose Pyrophosphorylases Open Novel Metabolic Scenarios and Biotechnological Tools” (Frontiers in Microbiology, 2022).

Substrate in data set [1]: N[C@H]1[C@@H](OP(=O)(O)O)O[C@H](CO)[C@@H](O)[C@@H]1O
Put plainly: purified protein. The conditions noted are these: ATP co-substrate, Mg2+, pH 8.0, 37°C, no activator.

Substrate in data set [2]: Nc1ncnc2c1ncn2[C@@H]1O[C@H](COP(=O)(O)OP(=O)(O)OP(=O)(O)O)[C@@H](O)[C@H]1O
The data set can be described thus: purified protein. The note with it: 1 mM GlcN-1P co-substrate, Mg2+, pH 8.0, 37°C.

B1: G. stearothermophilus ADP-Glc PPase GlgC/GlgD (Geobacillus stearothermophilus) (protein)
chain: MKKKCIAMLLAGGQGSRLRSLTTNIAKPAVPFGGKYRIIDFTLSNCTNSGIDTVGVLTQYQPLLLHSYIGIGSAWDLDRRNGGVTVLPPYSVSSGVKWYEGTANAVYQNINYIEQYNPDYVLVLSGDHIYKMDYQHMLDYHIAKQADVTISVIEVPWEEASRFGIMNTNEEMEIVEFAEKPAEPKSNLASMGIYIFNWPLLKQYLQIDNANPHSSHDFGKDVIPMLLREKKRPFAYPFEGYWKDVGTVKSLWEANMDLLDENNELDLFDRSWRIYSVNPNQPPQYISPEAEVSDSLVNEGCVVEGTVERSVLFQGVRIGKGAVVKESVIMPGAAVSEGAYVERAIVTPDSIIPPHSSVCPEDADDVVLVTAEWLKQSNEETARKDEA
Regarding B1, the Michaelis-Menten constant (Km) in data set [1] is 400 µM; in data set [2] it was 210 µM.

What is called Km is the concentration of substrate that gives half-maximal velocity.
